The labels stand for the following.
B1: Azoarcus group I ribozyme (parent)
chain: GUGCCUUGCGCCGGGAAACCACGCAAGGGAUGGUGUCAAAUUCGGCGAAACCUAAGCGCCCGCCCGGGCGUAUGGCAACGCCGAGCCAAGCUUCGGCGCCUGCGCCGAUGAAGGUGUAGAGACUAGACGGCACCCACCUAAGGCAAACGCUAUGGUGAAGGCAUAGUCCAGGGAGUGGCGAAAGUCACACAAACCGG

The variants in this series derive from B1. The series is described as follows: reverse-splicing fitness (ratio to wild type); higher = more active; in vitro selection; Mg2+ level not given. Put shortly:
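An in vitro group I ribozyme library with randomized positions was T7-transcribed and gel-purified. In triplicate, 10 pmol RNA in EPPS pH 7.5 was reacted with 50 pmoles of a 30-nt RNA substrate for 1 h at 37 °C across several added MgCl2 levels (1–48 mM), then stopped with EDTA. Products were reverse transcribed from a substrate-complementary primer, PCR-amplified and sequenced (HiSeq 4000). Fitness is a variant's read proportion after selection over that before, normalised to wild type.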
As to C82U A111G A120G A145G C150U C169G, the reverse-splicing fitness stood at 0.0111.
Turning to C82U A111G A120G A145G C150U C169U, the reverse-splicing fitness came to 0.0114.
Take C82U A111G A120G A145G C150U C169A: the reverse-splicing fitness was determined as 0.0108.
Next, C82U A111G A120C A145G C169U U176G: 0.00401; C82U A111G A120C A145G C169U U176C: 0.0146.
In the case of C82U A111G A120C A145U C150A C169U U176A, the reverse-splicing fitness worked out at 0.0139.
Turning to C82U A111G A120C A145U C150A C169U U176G, the reverse-splicing fitness stood at 0.00404.
With C82U A111G A120C A145U C150A C169U U176C the figure was 0.0132; with C82U A111G A120G A145U C150G U176A, 0.00535; with C82U A111G A120G A145U C150G U176G, 0.00321.
On to C82U A111G A120G A145U C150G U176C, for which the reverse-splicing fitness is 0.00779.
As for C82U A111G A120G A145G C150A C169U U176A, the reverse-splicing fitness was found to be 0.0215.
For the variant C82U A111G A120G A145G C150A C169U U176C, the reverse-splicing fitness came out at 0.0156.
Consider C82U A111G A120G A145G C150A C169U U176G, for which the reverse-splicing fitness was determined as 0.00573.
As for C82U A111G A120G A145U C150A C169U U176G, the reverse-splicing fitness is 0.0048.
Next, C82U A111G A120G A145U C150A C169U U176A: 0.019.
Turning to C82U A111G A120G A145U C150A C169U U176C, the reverse-splicing fitness was 0.0142.
Take C82U A111G A120C A145U C150G C169U: the reverse-splicing fitness was 0.00776.
With C82U A111G A120C A145U C150G C169G the figure was 0.00698; with C82U A111G A120C A145U C150G C169A, 0.00804; with C82U A111G A120G C150A, 0.00982.
Next, C82U A111G A120G A145C C150U C169G U176G: 0.0045; C82U A111G A120G A145C C150U C169G U176C: 0.0111.
Next, C82U A111G A120G A145C C150U C169G U176A: 0.0203.
Consider C82U A111G A120C C150U C169G, for which the reverse-splicing fitness stood at 0.00986.
Take C82U A111G A120C C150U C169A: the reverse-splicing fitness stood at 0.00965.
With C82U A111G A120C C150U C169U the figure was 0.0124.
Next, C82U A111G A120G A145G C150U C169U U176A: 0.0187; C82U A111G A120G A145G C150U C169U U176G: 0.00525; C82U A111G A120G A145G C150U C169U U176C: 0.0162.
As to C82U A111G A120G A145U C150U C169U U176C, the reverse-splicing fitness was 0.0131.
Next, C82U A111G A120G A145U C150U C169U U176G: 0.00432.
Next, C82U A111G A120G A145U C150U C169U U176A: 0.02; C82U A111G A120C C150G C169G U176A: 0.00718.
Next, C82U A111G A120C C150G C169G U176C: 0.00429; C82U A111G A120C C150G C169G U176G: 0.00467.
As to C82U A111G A120G A145C C169U U176A, the reverse-splicing fitness was 0.0189.
Turning to C82U A111G A120G A145C C169U U176C, the reverse-splicing fitness turned out to be 0.0105.
Next, C82U A111G A120G A145C C169U U176G: 0.00353; C82U A111G A120G A145U C150G C169A U176G: 0.00391.
Next, C82U A111G A120G A145U C150G C169A U176C: 0.00917; C82U A111G A120G A145U C150G C169A U176A: 0.00905; C82U A111G A120G C150A C169G: 0.00939.
For the variant C82U A111G A120G C150A C169A, the reverse-splicing fitness turned out to be 0.00997.
With C82U A111G A120C A145U C150U C169U the figure was 0.00989; with C82U A111G A120C A145U C150U C169G, 0.008.
On to C82U A111G A120C A145U C150U C169A, for which the reverse-splicing fitness was 0.00793.
Next, C82U A111G A120G C150A C169G U176A: 0.0186.
Turning to C82U A111G A120G C150A C169G U176C, the reverse-splicing fitness was found to be 0.0197.
Turning to C82U A111G A120G C150A C169G U176G, the reverse-splicing fitness was 0.00435.
For the variant C82U A111G A120C C150U C169A U176A, the reverse-splicing fitness is 0.0164.
Turning to C82U A111G A120C C150U C169A U176C, the reverse-splicing fitness was determined as 0.011.
For C82U A111G A120C C150U C169A U176G, the reverse-splicing fitness is 0.00397.
Consider C82U A111G A120C A145U C150A C169U, for which the reverse-splicing fitness was found to be 0.00709.
On to C82U A111G A120C A145U C150A C169G, for which the reverse-splicing fitness amounted to 0.00798.
Next, C82U A111G A120C A145U C150A C169A: 0.00739.
For C82U A111G A120C A145G U176C, the reverse-splicing fitness was determined as 0.0318.
Next, C82U A111G A120C A145G U176A: 0.0202; C82U A111G A120C A145G U176G: 0.00519.
Next, C82U A111G A120G A145C C150A U176A: 0.00929; C82U A111G A120G A145C C150A U176G: 0.00354.
With C82U A111G A120G A145C C150A U176C the figure was 0.00818; with C82U A111G A120C A145U C150G C169A U176G, 0.00477.
Regarding C82U A111G A120C A145U C150G C169A U176C, the reverse-splicing fitness was found to be 0.00798.
Take C82U A111G A120C A145U C150G C169A U176A: the reverse-splicing fitness was 0.00839.
With C82U A111G A120C A145U C150G the figure was 0.00964; with C82U A111G A120C A145U C150U, 0.0338; with C82U A111G A120C A145U C150A, 0.0105.
With C82U A111G A120C A145U C169A U176G, the reverse-splicing fitness amounted to 0.00329.
Next, C82U A111G A120C A145U C169A U176A: 0.00844; C82U A111G A120C A145U C169A U176C: 0.00627.
Consider C82U A111G A120G A145C C150A C169G, for which the reverse-splicing fitness is 0.00737.
Next, C82U A111G A120G A145C C150A C169A: 0.00777.
As to C82U A111G A120G A145C C150A C169U, the reverse-splicing fitness amounted to 0.00634.
Regarding C82U A111G A120G A145U C150U C169A U176C, the reverse-splicing fitness is 0.00928.
As to C82U A111G A120G A145U C150U C169A U176A, the reverse-splicing fitness came to 0.0119.
With C82U A111G A120G A145U C150U C169A U176G the figure was 0.0045; with C82U A111G A120G A145C C169U, 0.00954; with C82U A111G A120G A145C C169G, 0.0123.
Next, C82U A111G A120G A145C C169A: 0.00792; C82U A111G A120G A145U U176A: 0.0116; C82U A111G A120G A145U U176C: 0.0141.
With C82U A111G A120G A145U U176G, the reverse-splicing fitness was found to be 0.00443.

(Values after the RNAGym collection of RNA variant scans (doi:10.1093/molbev/msab373).)
